B1: LINE1-full (parent)
chain: UACGUAGGUGGUUUUCCCCUGAUAGUGCUAAGGGGGCCUGGAAGUUUGGACUGGGCAGAGCUCAACACAGCGUGGCAAAGUGGCUGUGGCUAGACUGCCUCUCUGGAUUCCUCGUCACUCAGCAGGGCAUCUCUGAGAGAAAUGCC

Variants of: B1
Experiment: self-cleavage, relative activity (ratio to wild type); higher = more cleavage; in vitro, sequencing; the parent is a self-cleaving ribozyme
In the case of UACGCAGGUGGUUUUCCCCUGAUAGUGCUAAGGGGGCCUGGAAGUUUGGACUGGGCAGAGCUCAACACAGCGUUGCAAAGUGGCUGUGGCUAGACUGCCUCUCUGGAUUCCUCGUCACUCAGCAGGGCAUCUCUGAGAGAAAUGCC, the self-cleavage is reported as 0.38.
Work on UACGCAGGUGGUUUUCCCCUGAUAGUGCUAAGGGGGCCUGGAAGUUUGGACUUGGCAGAGCUCAACACAGCGUGGCAAAGUGGCUGUGGCUAGACUGCCUCUCUGGAUUCCUCGUCACUCAGCAGGGCAUCUCUGAGAGAAAUGCC yielded a self-cleavage of 0.88.
UACGCAGGUGGUUUCCCCCUGAUAGUGCUAAGGGGGCCUGGAAGUUUGGACUGGGCAGAGCUCAACACAGCGUGGCAAAGUGGCUGUGGCUAGACUGCCUCUCUGGAUUCCUCGUCACUCAGCAGGGCAUCUCUGAGAGAAAUGCC gave a self-cleavage of 1.
UACGCAGGUGGUUUUCCCCUGAUAGUGCUAAGGGGGCCUGGAAGUUUGGACUGGGCAGAGCCCAACACAGCGUGGCAAAGUGGCUGUGGCUAGACUGCCUCUCUGGAUUCCUCGUCACUCAGCAGGGCAUCUCUGAGAGAAAUGCC showed a self-cleavage of 0.07.
UACGCAGGUGGUUUUCCCCUGAUAGUGCUAAGGGGGCCUGGAAGUUUGGACUGGGCAGAGCUCAACACAGCGUGGCAAAGUAGCUGUGGCUAGACUGCCUCUCUGGAUUCCUCGUCACUCAGCAGGGCAUCUCUGAGAGAAAUGCC gave a self-cleavage of 1.18.
UACGCAGGUGGCUUUCCCCUGAUAGUGCUAAGGGGGCCUGGAAGUUUGGACUGGGCAGAGCUCAACACAGCGUGGCAAAGUGGCUGUGGCUAGACUGCCUCUCUGGAUUCCUCGUCACUCAGCAGGGCAUCUCUGAGAGAAAUGCC gave a self-cleavage of 0.86.
UACGCAGGUGGGUUUCCCCUGAUAGUGCUAAGGGGGCCUGGAAGUUUGGACUGGGCAGAGCUCAACACAGCGUGGCAAAGUGGCUGUGGCUAGACUGCCUCUCUGGAUUCCUCGUCACUCAGCAGGGCAUCUCUGAGAGAAAUGCC gave a self-cleavage of 1.34.
Variant UACGCAGGUGGUUUUCCCCUGAUAGUGCUAAGGGGACCUGGAAGUUUGGACUGGGCAGAGCUCAACACAGCGUGGCAAAGUGGCUGUGGCUAGACUGCCUCUCUGGAUUCCUCGUCACUCAGCAGGGCAUCUCUGAGAGAAAUGCC has a self-cleavage of 0.4.
Variant UACGCAGGUGGUUUUCCCCUGAUAGUGCUAAGGGGGCCUGGAAGUUUGGACUGGGCAGAGCUCAACACAGCGUGGCAAAGUGGCUGUGGCUAGACUGCCUCUCUGGAUUCCUCGUCACUCAGCAGGGCAUCUCUGAGAGAAAUACC has a self-cleavage of 1.39.
Work on UACGCAGGUGGUUUUCCCCUGAUAGUGCUAAGGGGGCCUGGAAGUUUGGACUGGGCAGAGCUCAACACAGCGUGGCAAAGUGGCUGUGGCUAGACUACCUCUCUGGAUUCCUCGUCACUCAGCAGGGCAUCUCUGAGAGAAAUGCC yielded a self-cleavage of 0.
For UACGCAGGUGGUUUUCCCCUGAUAGUGCUAAGGGGGCCUGGAAGUUUGGACUGGGCAGAGCUCAACACAGCGUGGCAAAGUGGCUGCGGCUAGACUGCCUCUCUGGAUUCCUCGUCACUCAGCAGGGCAUCUCUGAGAGAAAUGCC, the self-cleavage was 0.15.
In the case of UACGCAGGUGGUUUUCCCCUGAUAGUGCUAAGGGGGCCUGGAAGUUUGGACUGGGCAGAGCUCAACACAGCGUGGCAAAGUGGCUGUGGCUAGACUGCCUCUCUGGAUUCCUCGUCACUCAGCAGGGCAUCUCUAAGAGAAAUGCC, the self-cleavage is reported as 0.96.
In the case of UACGCAGGUGGUUUUCCCCUGAUAGUGCUAAGGGGGCCUGGAAGUCUGGACUGGGCAGAGCUCAACACAGCGUGGCAAAGUGGCUGUGGCUAGACUGCCUCUCUGGAUUCCUCGUCACUCAGCAGGGCAUCUCUGAGAGAAAUGCC, the self-cleavage is reported as 0.99.
Work on UACGCAGGUGGUUUUCCCCUGAUAGUGCUAAGGGGGCCUGGAAGUUUGGACUGGGCAGAGCUCAACACAGCGUGGCAAAGUGGCUGUGGCUAGACUGCCUCUCUAGAUUCCUCGUCACUCAGCAGGGCAUCUCUGAGAGAAAUGCC yielded a self-cleavage of 1.16.
UACGCAGGUGGUUUUCCCCUGAUAGUGCUAAGGGGGCCUGGAAGUUUGGACUGGGCAGAGCUCAACACAGCGUGGCAAAGUGGCUGUGGCUAGACUGCCUCUCUUGAUUCCUCGUCACUCAGCAGGGCAUCUCUGAGAGAAAUGCC gave a self-cleavage of 1.32.
Work on UACGCAGGUGGUUUUCCCCUGAUAGUGCUAAGGGGGCCUGGAAGUUUGGACUGGGCAGAGCUCAACACAGCGUGGCAAAGUGGCUGUGGCUAGACUGCCUCUCUGGAUUCCUCAUCACUCAGCAGGGCAUCUCUGAGAGAAAUGCC yielded a self-cleavage of 0.96.
With UACGCAGGAGGUUUUCCCCUGAUAGUGCUAAGGGGGCCUGGAAGUUUGGACUGGGCAGAGCUCAACACAGCGUGGCAAAGUGGCUGUGGCUAGACUGCCUCUCUGGAUUCCUCGUCACUCAGCAGGGCAUCUCUGAGAGAAAUGCC the self-cleavage was 0.74.
In the case of UACGCAGGCGGUUUUCCCCUGAUAGUGCUAAGGGGGCCUGGAAGUUUGGACUGGGCAGAGCUCAACACAGCGUGGCAAAGUGGCUGUGGCUAGACUGCCUCUCUGGAUUCCUCGUCACUCAGCAGGGCAUCUCUGAGAGAAAUGCC, the self-cleavage is reported as 1.28.
With UACGCAGGUGGUUUUCCCCUGAGAGUGCUAAGGGGGCCUGGAAGUUUGGACUGGGCAGAGCUCAACACAGCGUGGCAAAGUGGCUGUGGCUAGACUGCCUCUCUGGAUUCCUCGUCACUCAGCAGGGCAUCUCUGAGAGAAAUGCC the self-cleavage was 1.53.
With UACGCAGGUGGUUUUCCCCUGAUAGUGCUAAGGGGGCCCGGAAGUUUGGACUGGGCAGAGCUCAACACAGCGUGGCAAAGUGGCUGUGGCUAGACUGCCUCUCUGGAUUCCUCGUCACUCAGCAGGGCAUCUCUGAGAGAAAUGCC the self-cleavage was 1.05.
UACGCAGGUGGUUUUCCCCUGAUAGUGCUAAGGGGGCCAGGAAGUUUGGACUGGGCAGAGCUCAACACAGCGUGGCAAAGUGGCUGUGGCUAGACUGCCUCUCUGGAUUCCUCGUCACUCAGCAGGGCAUCUCUGAGAGAAAUGCC showed a self-cleavage of 0.91.
UACGCAGGUGGUUUUCCCCUGAUAGUGCUAAGGGGGCCUGGAAGUUUGGACUGGGCAGAGCUCAACACAGCGUGGCAAAGGGGCUGUGGCUAGACUGCCUCUCUGGAUUCCUCGUCACUCAGCAGGGCAUCUCUGAGAGAAAUGCC showed a self-cleavage of 1.31.
For UACGCAGGUGGUUUUCCCCUGAUAGUGCUAAGGGGGCCUGGAAGUUUGGACUGGGCAGAGCUCAACACAGCGUGGCAAAGAGGCUGUGGCUAGACUGCCUCUCUGGAUUCCUCGUCACUCAGCAGGGCAUCUCUGAGAGAAAUGCC, the self-cleavage was 1.56.
Work on UACGCAGGUGGUAUUCCCCUGAUAGUGCUAAGGGGGCCUGGAAGUUUGGACUGGGCAGAGCUCAACACAGCGUGGCAAAGUGGCUGUGGCUAGACUGCCUCUCUGGAUUCCUCGUCACUCAGCAGGGCAUCUCUGAGAGAAAUGCC yielded a self-cleavage of 1.67.
In the case of UACGCAGGUGGUUAUCCCCUGAUAGUGCUAAGGGGGCCUGGAAGUUUGGACUGGGCAGAGCUCAACACAGCGUGGCAAAGUGGCUGUGGCUAGACUGCCUCUCUGGAUUCCUCGUCACUCAGCAGGGCAUCUCUGAGAGAAAUGCC, the self-cleavage is reported as 0.86.
UACGCAGGUGGUUUUCCCCUGAUAGUGCUAAGGGGGCCUGGAAGUUUGGACUGGACAGAGCUCAACACAGCGUGGCAAAGUGGCUGUGGCUAGACUGCCUCUCUGGAUUCCUCGUCACUCAGCAGGGCAUCUCUGAGAGAAAUGCC gave a self-cleavage of 0.5.
With UACGCAGGUGGUUUUCCCCUGAUAGUGCUAAGGGGGCCUGGAAGUUUGGACUGGGCAGAGCUCAACACAGCGUGGCAAAGUGGCUGUGUCUAGACUGCCUCUCUGGAUUCCUCGUCACUCAGCAGGGCAUCUCUGAGAGAAAUGCC the self-cleavage was 0.16.
For UACGCAGGUGGUUUUCCCCUGAUAGUGCUAAGGGGGCCUGGAAGUUUGGACUGGGCAGAGCUCAACACAGCGUGGCAAAGUGGCUGUGGCCAGACUGCCUCUCUGGAUUCCUCGUCACUCAGCAGGGCAUCUCUGAGAGAAAUGCC, the self-cleavage was 0.48.
Variant UACGCAGGUGGUUUUCCCCUGAUAGUGCUAAGGGGGCCUGGAAGUUUGGACUGGGCAGAGCUCAACACAGCGUGGCAAAGUGGCAGUGGCUAGACUGCCUCUCUGGAUUCCUCGUCACUCAGCAGGGCAUCUCUGAGAGAAAUGCC has a self-cleavage of 0.21.
Work on UACGCAGGUGGUUUUCCCCUGAUAGUGCUAAGGGGGCCUGGAAGUUUGGACUGGGCAGAGCUCAACACAGCGUGGCAAAGUGGCCGUGGCUAGACUGCCUCUCUGGAUUCCUCGUCACUCAGCAGGGCAUCUCUGAGAGAAAUGCC yielded a self-cleavage of 0.27.
UACGCAGGUGGUUUUCCCCUGAUAGUGCUAAGGGGGCCUGGAAGUUUGGACUGGGCAGAGCUCAACACAGCGUGGCAAAGUGGCUGUGGCUAGACUGCCUCUCUGGAUUCCUCGUCACUCAGCAGAGCAUCUCUGAGAGAAAUGCC gave a self-cleavage of 1.36.
For UACGCAGGUGGUUUUCCCCUGAUAGUGCUAAGGGGGCCUGGAAGCUUGGACUGGGCAGAGCUCAACACAGCGUGGCAAAGUGGCUGUGGCUAGACUGCCUCUCUGGAUUCCUCGUCACUCAGCAGGGCAUCUCUGAGAGAAAUGCC, the self-cleavage was 1.32.
With UACGCAGGUGGUUUUCCCCUGAUAGUGCUAAGGGGGCCUGGAAGAUUGGACUGGGCAGAGCUCAACACAGCGUGGCAAAGUGGCUGUGGCUAGACUGCCUCUCUGGAUUCCUCGUCACUCAGCAGGGCAUCUCUGAGAGAAAUGCC the self-cleavage was 0.74.
Work on UACGCAGGUGGUUUUCCCCAGAUAGUGCUAAGGGGGCCUGGAAGUUUGGACUGGGCAGAGCUCAACACAGCGUGGCAAAGUGGCUGUGGCUAGACUGCCUCUCUGGAUUCCUCGUCACUCAGCAGGGCAUCUCUGAGAGAAAUGCC yielded a self-cleavage of 0.84.
UACGCAGGUGGUUUUCCCCCGAUAGUGCUAAGGGGGCCUGGAAGUUUGGACUGGGCAGAGCUCAACACAGCGUGGCAAAGUGGCUGUGGCUAGACUGCCUCUCUGGAUUCCUCGUCACUCAGCAGGGCAUCUCUGAGAGAAAUGCC showed a self-cleavage of 1.09.
With UACGCAGGUGGUUUUCCCCUGAUAGGGCUAAGGGGGCCUGGAAGUUUGGACUGGGCAGAGCUCAACACAGCGUGGCAAAGUGGCUGUGGCUAGACUGCCUCUCUGGAUUCCUCGUCACUCAGCAGGGCAUCUCUGAGAGAAAUGCC the self-cleavage was 0.47.
Work on UACGCAGGUGGUUUUCCCCUGAUAGUGCUAAGGGGGCCUGGAAGUUUGGACUGGGCAGAGCUCAACACAGCGUGGCAAAAUGGCUGUGGCUAGACUGCCUCUCUGGAUUCCUCGUCACUCAGCAGGGCAUCUCUGAGAGAAAUGCC yielded a self-cleavage of 2.24.
Variant UACGCAGGUGGUUUUCCCCUGAUAGUGCUAAGGGGGCCUGGAAGUUUGGACUGGGCAGAGCUCAACACAGCGCGGCAAAGUGGCUGUGGCUAGACUGCCUCUCUGGAUUCCUCGUCACUCAGCAGGGCAUCUCUGAGAGAAAUGCC has a self-cleavage of 1.16.
UACGCAGGUGGUUUUCCCCUGAUAGUGCUAAGAGGGCCUGGAAGUUUGGACUGGGCAGAGCUCAACACAGCGUGGCAAAGUGGCUGUGGCUAGACUGCCUCUCUGGAUUCCUCGUCACUCAGCAGGGCAUCUCUGAGAGAAAUGCC showed a self-cleavage of 1.45.
